Laboratory results: PMC5093550

What was measured:
[1] = biological target: α-synuclein fibrils; test: fluorescence spectroscopy of the fibrils formed; seeded fibrils formed with unlabelled monomeric α-synuclein and monomeric Alexa-568-β-synuclein, compared with fibrils formed with Alexa-568-α-synuclein; pH 6.5
[2] = biological target: α-synuclein fibrils; test: microfluidic diffusional sizing; monomeric Alexa-568-β-synuclein incubated (15 min) with unlabelled α-synuclein fibrils at [α-synuclein fibrils]:[β-synuclein monomer] (M:M) of 5 and 40; conditions of the seeded kinetic experiments (pH 6.5); degree of binding estimated from the effective hydrodynamic radius

- degree of incorporation into the fibrils [1]: < 3%
- degree of binding at [α-synuclein fibrils]:[β-synuclein monomer] ratio 5 [2]: < 5%
- degree of binding at [α-synuclein fibrils]:[β-synuclein monomer] ratio 40 [2]: 10%
Substance: Alexa-568-β-synuclein, monomeric (from UniProt Q16143 1-134) (natural protein)
